The text below walks through data of US20240417476A1 (ATYR PHARMA, published 2024).

Ends that are not written are not given here.

The target of test [1] is T1, mNRP2A peptide (biotinylated) (mouse, biotin-conjugated, site not stated).
T1 construct: also called mouse NRP2 isoform a peptide
Kind of test: BLI, peptide on sensor, 50 nM antibody.

A further test addresses T2, NRP2v3.
T2 construct: not the NanoLuc-tagged construct m33; also called human NRP2 v3 expressed on Expi293F cells; NRP2a v3
T2 chain: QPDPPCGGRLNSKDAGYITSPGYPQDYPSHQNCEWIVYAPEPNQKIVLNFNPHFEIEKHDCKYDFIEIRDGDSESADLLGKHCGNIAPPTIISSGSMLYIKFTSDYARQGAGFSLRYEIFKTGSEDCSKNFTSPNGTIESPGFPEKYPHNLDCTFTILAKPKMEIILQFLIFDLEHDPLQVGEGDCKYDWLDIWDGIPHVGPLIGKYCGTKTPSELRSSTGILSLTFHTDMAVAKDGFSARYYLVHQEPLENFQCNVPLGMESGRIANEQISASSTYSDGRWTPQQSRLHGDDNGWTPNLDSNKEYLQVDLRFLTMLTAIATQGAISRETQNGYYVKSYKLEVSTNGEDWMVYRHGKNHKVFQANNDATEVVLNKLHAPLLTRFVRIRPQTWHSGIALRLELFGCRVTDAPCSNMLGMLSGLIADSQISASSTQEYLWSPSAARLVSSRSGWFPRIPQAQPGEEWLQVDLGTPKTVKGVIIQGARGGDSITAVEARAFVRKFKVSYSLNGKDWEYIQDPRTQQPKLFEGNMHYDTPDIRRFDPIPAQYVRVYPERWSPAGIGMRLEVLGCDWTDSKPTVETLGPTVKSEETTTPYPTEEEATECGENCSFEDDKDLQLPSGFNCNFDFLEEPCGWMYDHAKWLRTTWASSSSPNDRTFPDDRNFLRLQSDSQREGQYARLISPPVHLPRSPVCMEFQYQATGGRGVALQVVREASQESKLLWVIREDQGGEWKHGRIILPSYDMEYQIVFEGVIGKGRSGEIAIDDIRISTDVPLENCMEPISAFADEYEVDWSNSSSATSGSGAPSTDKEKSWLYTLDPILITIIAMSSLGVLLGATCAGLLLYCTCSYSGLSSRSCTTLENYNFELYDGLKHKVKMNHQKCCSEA
Put plainly: flow cytometry, Expi293F cells transfected with the target, fluorescent anti-mouse secondary; MFI signal relative to mock-transfected cells. Background: Flow cytometry measures light scatter and fluorescence of single cells or particles in a stream.

Test [2] deals with T3, NRP2b peptide (biotinylated) (human, biotin-conjugated, site not stated).
T3 construct: also called NRP2b isoform specific peptide
T3 peptide: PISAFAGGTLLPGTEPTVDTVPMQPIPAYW
Put plainly: peptide ELISA.

The target of test [3] is T4, NRP2A peptide (biotinylated) (human, biotin-conjugated, site not stated).
T4 construct: also called NPR2A; NRP2a specific peptide
Put plainly: BLI, isoform peptide on sensor, 50 nM antibody.

In test [4] the target is T5, human NRP2b expressed on Expi293F cells (human).
T5 construct: also called full length NRP2b
T5 chain: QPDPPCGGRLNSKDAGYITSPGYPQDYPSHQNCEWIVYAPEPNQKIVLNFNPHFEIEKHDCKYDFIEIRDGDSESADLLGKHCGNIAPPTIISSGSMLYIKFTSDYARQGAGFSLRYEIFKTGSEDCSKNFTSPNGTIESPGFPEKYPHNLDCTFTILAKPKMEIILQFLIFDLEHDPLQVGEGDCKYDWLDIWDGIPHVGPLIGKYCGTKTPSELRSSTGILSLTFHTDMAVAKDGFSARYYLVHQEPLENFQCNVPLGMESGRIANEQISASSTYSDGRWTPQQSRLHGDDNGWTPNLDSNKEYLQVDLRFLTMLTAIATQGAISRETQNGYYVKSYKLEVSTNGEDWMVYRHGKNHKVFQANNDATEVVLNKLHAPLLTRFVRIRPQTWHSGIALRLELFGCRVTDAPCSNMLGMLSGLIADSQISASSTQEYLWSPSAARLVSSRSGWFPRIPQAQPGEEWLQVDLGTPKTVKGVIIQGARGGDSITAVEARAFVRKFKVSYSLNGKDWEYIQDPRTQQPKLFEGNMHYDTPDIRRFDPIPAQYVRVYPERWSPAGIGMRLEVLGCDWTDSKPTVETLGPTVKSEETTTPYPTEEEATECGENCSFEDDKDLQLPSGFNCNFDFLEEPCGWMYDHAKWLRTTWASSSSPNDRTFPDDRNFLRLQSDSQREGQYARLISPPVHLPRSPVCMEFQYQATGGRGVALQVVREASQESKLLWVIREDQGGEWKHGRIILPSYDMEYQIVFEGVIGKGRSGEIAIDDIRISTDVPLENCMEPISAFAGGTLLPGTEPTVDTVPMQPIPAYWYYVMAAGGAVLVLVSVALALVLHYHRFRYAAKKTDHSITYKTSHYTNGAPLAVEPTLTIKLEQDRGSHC
Kind of test: flow cytometry, Expi293F cells transfected with the target, fluorescent anti-mouse secondary; MFI signal relative to mock-transfected cells.
Method: (§1) Signal to noise was calculated as the staining intensity of transfected cells compared to an un-transfected ‘mock’ population.

Test [5] deals with T6, Mid-mNRP2A peptide (biotinylated) (mouse, biotin-conjugated, site not stated).
T6 peptide: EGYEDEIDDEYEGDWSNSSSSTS
Put plainly: BLI, peptide on sensor.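 Note: octet RED96e biolayer interferometry with biotin-conjugated NRP2 peptides spanning isoform-specific regions (human and mouse) loaded on biosensors, antibodies applied at 50 nM, association read over 300 s.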 In general terms: Biolayer interferometry detects binding as a change in optical thickness at a sensor tip.

Test [6] concerns the target T7, NRP2a_scan 1 peptide (biotinylated) (human, also: biotin-conjugated, site not given here).
T7 peptide: VDIPEIHEREGY
Kind of test: BLI, peptide on sensor.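 Note: octet RED96e biolayer interferometry with biotin-conjugated NRP2 peptides spanning isoform-specific regions (human and mouse) loaded on biosensors, antibodies applied at 50 nM, association read over 300 s.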

In test [7] the target is T8, NRP2a_scan 5 peptide (biotinylated) (human, also: biotin-conjugated, site not given here).
T8 peptide: EDEIDDEYEVDW
Kind of test: BLI, peptide on sensor.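 Note: octet RED96e biolayer interferometry with biotin-conjugated NRP2 peptides spanning isoform-specific regions (human and mouse) loaded on biosensors, antibodies applied at 50 nM, association read over 300 s.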

Test [8] has as its target T9, NRP2a_scan 7 peptide (biotinylated) (human, also: biotin-conjugated, site not given here).
T9 peptide: EYEVDWSNSSSA
Put plainly: BLI, peptide on sensor.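 Note: octet RED96e biolayer interferometry with biotin-conjugated NRP2 peptides spanning isoform-specific regions (human and mouse) loaded on biosensors, antibodies applied at 50 nM, association read over 300 s.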

For test [9], the target named is T10, NRP2a_scan 3 peptide (biotinylated) (human, also: biotin-conjugated, site not given here).
T10 peptide: HEREGYEDEIDD
Put plainly: BLI, peptide on sensor.

Test [10] concerns the target T11, NRP2a_scan 2 peptide (biotinylated) (human, also: biotin-conjugated, site not given here).
T11 peptide: PEIHEREGYEDE
Put plainly: BLI, peptide on sensor.

For test [11], the target named is Short NRP2A peptide (biotinylated) (human, biotin-conjugated, site not stated). Put plainly: BLI, peptide on sensor.
Test [12] addresses T12, Mid-NRP2A peptide (biotinylated) (human, biotin-conjugated, site not stated).
T12 peptide: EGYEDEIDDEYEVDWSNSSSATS
Put plainly: BLI, peptide on sensor.

The target of test [13] is T13, NRP2a_scan 4 peptide (biotinylated) (human, also: biotin-conjugated, site not given here).
T13 peptide: EGYEDEIDDEYE
Put plainly: BLI, peptide on sensor.

Test [14] concerns the target mNRP2b peptide (biotinylated) (mouse, biotin-conjugated, site not stated). Put plainly: BLI, peptide on sensor.
The target in test [15] is T14, NRP2a_scan 6 peptide (biotinylated) (human, also: biotin-conjugated, site not given here).
T14 peptide: IDDEYEVDWSNS
Put plainly: BLI, peptide on sensor.

Test [16] deals with T15, human NRP2a v2 expressed on Expi293F cells (human, UniProt O60462 23-931).
T15 construct: cDNA Origene RCC220706; also called NRP2 v2
Put plainly: flow cytometry, Expi293F cells transfected with the target, fluorescent anti-mouse secondary; MFI signal relative to mock-transfected cells.
Method: as §1

mNRP2b peptide (biotinylated) (mouse, biotin-conjugated, site not stated), sequence (peptide, as listed by the source): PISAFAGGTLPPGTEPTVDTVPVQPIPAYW
Method for NRP2v3: as §1

B1: aNRP2-405v2 (antibody, V domains shown)
VH: EVMLVESGGGLVKPGGSLKLSCAASGFTFRRYAMSWVRQTPEKGLEWVATITSGGSYTYYLDSVKGRITISRDNAKNTLYLQMSSLRSEDTAMYYCARHGIYGGFDYWGQGTTLTVSS
VL: DVLMTQTPLSLPVSLGDQASISCRSSQSIVHSDGNTYLEWYLQKPGQSPNLLIYKVSNRFSGVPDRFSGSGSGTDFTLKISRVEAEDLGIYYCFQGSHVPFTFGSGTKLEIK
notes: Mouse monoclonal
Take B1: the binding result in [1] was “binds”; with NRP2v3 it was “no binding”; in [2], “no binding (tested: <3x blank)”; in [3], “binds”; in [4] it was “no binding”; in test [5], “no binding (tested: 50 nM)”. Further, the binding result in test [6], in test [7], in test [8], in [9], in test [10] and in [11] was “no binding (tested: 50 nM)” in each case. For the same molecule, the binding result in [12], in test [13], in test [14] and in test [15] was “no binding (tested: 50 nM)” throughout.

B2: aNRP2-408v2 (antibody, V domains shown)
VH: EVKLVESGGGLVKPGGSLKLSCAASGFTFSSYAMSWVRQTPEKRLEWVASISRGSITYYPDSVKGRFTISRDNAGNILYLQMSSLRSEDTAMYYCAREYYYAMDYWGQGTSVTVSS
VL: DIQMTQSPSSLSASLGERVSLTCRASQDIGSRLNWLQQEPDGTIKRLIYATSSLDSGVPKRFSGSRSGSDYSLTISSLESEDFVDYYCLQYASSPYTFGGGTKLEIK
notes: Mouse monoclonal
Turning to B2, the binding result was “binds” in [1]; “no binding” with NRP2v3; “no binding (tested: <3x blank)” in test [2]; “binds” in test [3]; “binds” in [16]; “no binding” in test [4]. The binding result in [5], in test [6], in test [7], in test [8], in [9] and in test [10] was “no binding (tested: 50 nM)” throughout. Besides, the binding result in test [11], in [12], in [13], in test [14] and in test [15] was “no binding (tested: 50 nM)” in each case.

B3: aNRP2-409v3 (antibody, V domains shown)
VH: EVQFVETGGGLVQPKGSLKLSCAASGFTFNTNAMNWVRQAPGKGLEWVARIRTKSNNYATYYADSVKDRFTISRDDSQNILYLQMNNLKTEDTAMYYCVTLDSSGYVWFAYWGQGTLVTVSA
VL: B2 VL
notes: Mouse monoclonal; also called 409 v2; aNRP2-409v2
In the case of B3, the binding result with NRP2v3 is “no binding”; in test [2], “no binding (tested: <3x blank)”; in [4] it was “no binding”; in [5], “no binding (tested: 50 nM)”; in test [6], “no binding (tested: 50 nM)”; in [7], “no binding (tested: 50 nM)”. Further, the binding result in [8], in [9], in test [10], in test [11], in test [12] and in test [13] was “no binding (tested: 50 nM)” in each case. Besides, the binding result in test [14] and in test [15] was “no binding (tested: 50 nM)” throughout.
